Experimental data as given in patent publication US20240287481A1, “POLYMERASES FOR EFFICIENT INCORPORATION OF NUCLEOTIDES WITH 3'-PHOSPHATE AND OTHER 3'-TERMINATORS” (MGI Tech Co., Ltd., priority 2021, published 2024).

How the values were obtained:
[1] = test system: 3′-phosphate / 2′-phosphate nucleotides; conditions: cited from earlier work
[2] = test system: 3′ phosphate-extended primer; assay: 3′ phosphate primer detection with antibodies in a microtiter plate (fluorescence); assay type: binding; conditions: for ratio to no primer: intensity primer / no primer; for fluorescence intensity: 5 min binding, wash at 60° C.
Method: 3′ phosphate blocked nucleotides were incorporated onto the terminal position of a primer and then reacted with unlabeled or labeled antibodies. After a short reaction time of less than 5 minutes, excess antibodies were washed from the reaction well and bound antibodies detected. In the case of unlabeled antibodies, a secondary fluorescently labeled antibody or nanobody was used to bind to the primary IgG before fluorescence detection. In the case of directly labeled primary antibodies, excess un-bound antibodies were washed away and fluorescence in the reaction well measured with a fluorescence plate reader.
Under some binding and wash conditions some non-specific binding of antibody was occurring on the target. […] The interaction of magnesium with the phosphates of the DNA phosphodiester bonds may be suppressing the ability of the antibodies to react with internal phosphates but still allowing recognition of the terminal phosphate. Specific binding in the presence of magnesium was 10-27 fold higher than without primer.

[3] = no primer (non-specific binding), 20 mM Mg buffer
[4] = no primer (non-specific binding), magnesium free buffer
[5] = primer extended with 3′ phosphate nucleotide, 20 mM Mg buffer
[6] = primer extended with 3′ phosphate nucleotide, magnesium free buffer

B1: Taq 475: Taq polymerase variant E520G, K540I, L616A (protein, UniProt P19821 1-832, looked up, variant E520G K540I L616A)
DNA polymerase I, thermostable: MRGMLPLFEPKGRVLLVDGHHLAYRTFHALKGLTTSRGEPVQAVYGFAKSLLKALKEDGDAVIVVFDAKAPSFRHEAYGGYKAGRAPTPEDFPRQLALIKELVDLLGLARLEVPGYEADDVLASLAKKAEKEGYEVRILTADKDLYQLLSDRIHVLHPEGYLITPAWLWEKYGLRPDQWADYRALTGDESDNLPGVKGIGEKTARKLLEEWGSLEALLKNLDRLKPAIREKILAHMDDLKLSWDLAKVRTDLPLEVDFAKRREPDRERLRAFLERLEFGSLLHEFGLLESPKALEEAPWPPPEGAFVGFVLSRKEPMWADLLALAAARGGRVHRAPEPYKALRDLKEARGLLAKDLSVLALREGLGLPPGDDPMLLAYLLDPSNTTPEGVARRYGGEWTEEAGERAALSERLFANLWGRLEGEERLLWLYREVERPLSAVLAHMEATGVRLDVAYLRALSLEVAEEIARLEAEVFRLAGHPFNLNSRDQLERVLFDELGLPAIGKTEKTGKRSTSAAVLGALREAHPIVEKILQYRELTILKSTYIDPLPDLIHPRTGRLHTRFNQTATATGRLSSSDPNLQNIPVRTPLGQRIRRAFIAEEGWLLVALDYSQIEARVLAHLSGDENLIRVFQEGRDIHTETASWMFGVPREAVDPLMRRAAKTINFGVLYGMSAHRLSQELAIPYEEAQAFIERYFQSFPKVRAWIEKTLEEGRRRGYVETLFGRRRYVPDLEARVKSVREAAERMAFNMPVQGTAADLMKLAMVKLFPRLEEMGARMLLQVHDELVLEAPKERAEAVARLAKEVMEGVYPLAVPLEVEVGIGEDWLSAKE
incorporation of 3′-phosphate nucleotides, in words [1]: does not incorporate 3′-phosphate nucleotides

B2: 12D6: rabbit monoclonal dTTP-3P antibody, SEQ ID NO: 51 and 52 (protein)
chain 1: METGLRWLLLVAVLKGVQCQSLEESGGRLVTPGTPLTLTCTVSGIDLSSYTITWVRQAPGKGLEWIGYIYVHDGATYYANWAKGRFTISRTSSTTVDLKMTSLTTEDTATYFCASGGGTTYYRIWGPGTLVTVSSGQPKAPSVFPLAPCCGDTPSSTVTLGCLVKGYLPEPVTVTWNSGTLTNGVRTFPSVRQSSGLYSLSSVVSVTSSSQPVTCNVAHPATNTKVDKTVAPSTCSKPMCPPPELPGGPSVFIFPPKPKDTLMISRTPEVTCVVVDVSQDDPEVQFTWYINNEQVRTARPPLREQQFNSTIRVVSTLPIAHQDWLRGKEFKCKVHNKALPAPIEKTISKARGQPLEPKVYTMGPPREELSSRSVSLTCMINGFYPSDISVEWEKNGKAEDNYKTTPTVLDSDGSYFLYSKLSVPTSEWQRGDVFTCSVMHEALHNHYTQKSISRSPGK
chain 2: MDTRAPTQLLGLLLLWLPGATFAQLLTQTPPSVSAPVGGTVTINCQSSQSVYGHNRLSWYQQKPGQPPKLLIYYTSTLASGVPSRFKGSGSGTQFTLTISDLECDDAATYYCAGGYNGNIYAFGGGTEVVVKGDPVAPTVLIFPPAADQVATGTVTIVCVANKYFPDVTVTWEVDGTTQTTGIENSKTPQNSADCTYNLSSTLTLTSTQYNSHKEYTCKVTQGTTSVVQSFNRGDC
modifications: dTTP-3P
ratio to no primer ([2]; 20 mM Mg buffer): 20.6
ratio to no primer ([2]; magnesium free buffer): 1.7
fluorescence intensity [2, 3]: 13278
fluorescence intensity [2, 4]: 206733
fluorescence intensity [2, 5]: 273502
fluorescence intensity [2, 6]: 345210

B3: 2F7: rabbit monoclonal dCTP-3P antibody, SEQ ID NO: 43 and 44 (protein)
chain 1: METGLRWLLLVAVLKGVQCQSVEESGGRLVTPGTPLTLTCTVSGFSLSNYAIIWVRQAPGEGLEYIGFISRTGSINYANWAKGRFTISKTSTTVDLKITSPTTEDTATYFCARTDYFANGDIWGPGTLVTVSSGQPKAPSVFPLAPCCGDTPSSTVTLGCLVKGYLPEPVTVTWNSGTLTNGVRTFPSVRQSSGLYSLSSVVSVTSSSQPVTCNVAHPATNTKVDKTVAPSTCSKPMCPPPELPGGPSVFIFPPKPKDTLMISRTPEVTCVVVDVSQDDPEVQFTWYINNEQVRTARPPLREQQFNSTIRVVSTLPIAHQDWLRGKEFKCKVHNKALPAPIEKTISKARGQPLEPKVYTMGPPREELSSRSVSLTCMINGFYPSDISVEWEKNGKAEDNYKTTPTVLDSDGSYFLYSKLSVPTSEWQRGDVFTCSVMHEALHNHYTQKSISRSPGK
chain 2: MDTRVPTQLLGLLLLWLPGARCADVVMTQTPASVSEPVGGTVTIKCQASQSINSWLSWYQQKPGQPPKLLIYAASTLASGVPSRFKGSGSGTQFTLTISDLECADAATYFCQSYDMIVNHGAPFGGGTGVVVSGDPVAPTVLIFPPAADQVATGTVTIVCVANKYFPDVTVTWEVDGTTQTTGIENSKTPQNSADCTYNLSSTLTLTSTQYNSHKEYTCKVTQGTTSVVQSFNRGDC
modifications: dCTP-3P
ratio to no primer ([2]; 20 mM Mg buffer): 16.2
ratio to no primer ([2]; magnesium free buffer): 8.8
fluorescence intensity [2, 3]: 11357
fluorescence intensity [2, 4]: 19124
fluorescence intensity [2, 5]: 183669
fluorescence intensity [2, 6]: 167623

B4: 18B10: rabbit monoclonal dATP-3P antibody, SEQ ID NO: 39 and 40 (protein)
chain 1: METGLRWLLLVAVLKGVQCQSVEESGGRLVTPGTPLTLTCTVSGIDLSSYAMGWVRQAPGKGLEWIGMISRRGTSYYASWARGRFTISKTSTTVDLKITSPTTEETATYFCARATYDDYTDLNLWGQGTLVTVSSGQPKAPSVFPLAPCCGDTPSSTVTLGCLVKGYLPEPVTVTWNSGTLTNGVRTFPSVRQSSGLYSLSSVVSVTSSSQPVTCNVAHPATNTKVDKTVAPSTCSKPMCPPPELPGGPSVFIFPPKPKDTLMISRTPEVTCVVVDVSQDDPEVQFTWYINNEQVRTARPPLREQQFNSTIRVVSTLPIAHQDWLRGKEFKCKVHNKALPAPIEKTISKARGQPLEPKVYTMGPPREELSSRSVSLTCMINGFYPSDISVEWEKNGKAEDNYKTTPTVLDSDGSYFLYSKLSVPTSEWQRGDVFTCSVMHEALHNHYTQKSISRSPGK
chain 2: MDTRAPTQLLGLLLLWLPGATFAQVLTQTPSSVSAAVGGTVTINCQSSQSVYNNNLLSWYQQKPGQPPKLLIYKTSSLASGVPSRFSGSGSGTQFTLTISGVQCDDAATYYCLGGYYSGSGWYSTFGGGTEVVVKGDPVAPTVLIFPPSADLVATGTVTIVCVANKYFPDVTVTWEVDGTTQTTGIENSKTPQNSADCTYNLSSTLTLTSTQYNSHKEYTCKVTQGTTSVVQSFNRGDC
modifications: dATP-3P
ratio to no primer ([2]; 20 mM Mg buffer): 27.1
ratio to no primer ([2]; magnesium free buffer): 3.0
fluorescence intensity [2, 3]: 8820
fluorescence intensity [2, 4]: 88385
fluorescence intensity [2, 5]: 238771
fluorescence intensity [2, 6]: 265039
